Data from US11306331B2, “Processes for the production of hydroxycinnamic acids using polypeptides having tyrosine ammonia lyase activity” (CysBio ApS, priority 2014, dated 2022).

B1: Flavobacterium johnsoniae FjXAL tyrosine ammonia lyase (Protein GI 146298870), SEQ ID NO: 1, His-tagged (N-terminal tag SEQ ID NO: 11) (Flavobacterium … (protein)
chain: MNTINEYLSLEEFEAIIFGNQKVTISDVVVNRVNESFNFLKEFSGNKVIYGVNTGFGPMAQYRIKESDQIQLQYNLIRSHSSGTGKPLSPVCAKAAILARLNTLSLGNSGVHPSVINLMSELINKDITPLIFEHGGVGASGDLVQLSHLALVLIGEGEVFYKGERRPTPEVFEIEGLKPIQVEIREGLALINGTSVMTGIGVVNVYHAKKLLDWSLKSSCAINELVQAYDDHFSAELNQTKRHKGQQEIALKMRQNLSDSTLIRKREDHLYSGENTEEIFKEKVQEYYSLRCVPQILGPVLETINNVASILEDEFNSANDNPIIDVKNQHVYHGGNFHGDYISLEMDKLKIVITKLTMLAERQLNYLLNSKINELLPPFVNLGTLGFNFGMQGVQFTATSTTAESQMLSNPMYVHSIPNNNDNQDIVSMGTNSAVITSKVIENAFEVLAIEMITIVQAIDYLGQKDKISSVSKKWYDEIRNIIPTFKEDQVMYPFVQKVKDHLINN

Assays:
[1] = biological target: T1, Saccharothrix espanaensis SeSam8 (Protein GI 433607630), His-tagged (N-terminal tag SEQ ID NO: 11) (Saccharothrix espanaensis, UniProt Q2EYY5); assay: In vitro kinetics of purified His-tagged SeSam8 (tyrosine/phenylalanine ammonia lyase activity, absorbance at 315/295 nm); assay type: biochemical
T1 sequence (Q2EYY5 1-510): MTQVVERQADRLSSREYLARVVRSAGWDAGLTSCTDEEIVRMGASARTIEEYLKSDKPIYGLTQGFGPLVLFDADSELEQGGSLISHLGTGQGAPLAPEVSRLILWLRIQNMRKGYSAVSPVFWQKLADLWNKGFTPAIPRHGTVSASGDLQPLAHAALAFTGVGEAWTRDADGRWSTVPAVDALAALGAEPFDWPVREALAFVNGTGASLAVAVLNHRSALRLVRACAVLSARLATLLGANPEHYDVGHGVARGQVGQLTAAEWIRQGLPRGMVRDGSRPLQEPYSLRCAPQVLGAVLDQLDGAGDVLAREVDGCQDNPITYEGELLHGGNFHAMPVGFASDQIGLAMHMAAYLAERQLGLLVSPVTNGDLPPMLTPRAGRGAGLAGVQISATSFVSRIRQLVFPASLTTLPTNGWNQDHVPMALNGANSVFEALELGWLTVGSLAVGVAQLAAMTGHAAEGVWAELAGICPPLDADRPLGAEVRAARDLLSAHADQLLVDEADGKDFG
Text: Four of the enzymes were further purified by His-tag purification as follows. A DNA linker (5′ phosphorylated oligonucleotides CBJP559 and CBJP560, Table 5) was inserted in place of the sequence between the NdeI and BgIII site in plasmid pCDFDuet-1. This would result in the addition of the amino acids MAHHHHHHENLYFQ (SEQ ID NO: 11) to the N-terminal end of the polypeptides. The resulting plasmid was amplified with primers CBJP575 and CBJP576 (table 5) and the genes were amplified and combined using the Gibson reaction (New England Biolabs). The PCR amplification used the same reverse primers as in example 1, but the forward primers matching the His-tag site of the linker (Table 5). Plasmids carrying the genes (e.g. FjXAL, FIG. 4) were transformed into electrocompetent E. coli BL21(DE3)pLysS cells (Life Technologies) and selected on LB plates containing 50 ug/mL streptomycin.
Strains expressing His-tagged versions of the enzymes were grown in LB media overnight at 37° C. and diluted into fresh LB media with 1 mM IPTG and growth was propagated overnight (approximately 18 h) at 30° C. […]
Enzymatic assays were performed in 200 μL volumes in wells in a UV transparent 96-well plate, by following the increase in absorbance at 315 nm (pHCA) or 295 nm (CA). […] The enzymatic activity was calculated as U/g, where U is defined as μmol substrate converted per minute.

[2] = tested on: E. coli BL21(DE3)pLysS cells; assay: Specific production of pHCA and CA by E. coli expressing TAL/PAL enzymes; assay type: cell-based, Escherichia coli; conditions: 24 h after supplementation, +/- standard deviation
Procedure: Plasmids carrying the genes were transformed into electrocompetent E. coli BL21(DE3)pLysS cells (Life Technologies) and selected on LBplates containing 50 ug/mL streptomycin. The strains were grown in M9 minimal media containing glucose as a carbon source, and expression was induced by adding 1 mM IPTG at an optical density at 600 nm of 0.6. After three hours of growth at 30° C. the cultures were supplemented with 2 mM tyrosine, phenylalanine or histidine. After further 24 hours, samples were withdrawn for determination of the optical density at 600 nm and for the isolation of the supernatant.
The concentration of pHCA and CA in the supernatant was quantified by high performance (HPLC) and compared to chemical standards. HPLC was done on a Thermo setup using a HS-F5 column and mobile phases: 5 mM ammonium formate pH 4.0 (A) and acetonitrile (B) at 1.5 mL min-1, using a gradient elution starting at 5% B. From 0.5 min after injection to 7 min, the fraction of B increased linearly from 5% to 60%, and between 9.5 min and 9.6 the fraction of B decreased back to 5%, and remaining there until 12m pHCA and CA were quantified by measuring absorbance at 333 nm and 277 nm, respectively. The production was tested without addition of precursors or the addition of either phenylalanine or tyrosine to the growth medium.
The specific production was calculated as micromolar (μM) concentration per unit of optical density of the culture at 600 nm, and standard deviations were calculated based on triplicate experiments. HaXAL1, HaXAL2 and FjXAL are the most specific enzymes and those that reach the highest yields.

Row | Molecule | Kcat ([1]; 30° C, 1.56 μM to 200 μM tyrosine or 193 μM to 25 mM phenylalanine) [s⁻¹] | TAL/PAL ([1]; ratio of Kcat/Km for Tyr over Phe) | Specific production of CA ([2]; M9 + His (2 mM)) [μM OD600-1] | Specific production of pHCA ([2]; M9 + His (2 mM)) [μM OD600-1] | Specific production of CA ([2]; M9 + Phe (2 mM)) [μM OD600-1] | Specific production of pHCA ([2]; M9 + Phe (2 mM)) [μM OD600-1] | Specific production of CA ([2]; M9 + Tyr (2 mM)) [μM OD600-1] | Specific production of pHCA ([2]; M9 + Tyr (2 mM)) [μM OD600-1]
1 | N[C@@H](Cc1ccc(O)cc1)C(=O)O [Tyr, tyrosine] | 0.014 | 730 |  |  |  |  |  | 
2 | B1 |  |  | 0 ± 0 | 91 ± 20 | 0.5 ± 0.4 | 76 ± 29 | 0 ± 0 | 440 ± 100
